{
  "source": "patent US6413750B1",
  "about": "“(R)-specific alcohol dehydrogenases from lactobacillus with improved catalytic activity using an NAD+ substrate” (Forschungszentrum Jülich GmbH, priority 1998, dated 2002)",
  "key": {"[1]": {"assay": "Kinetic data for the reduced coenzyme NADPH (reduction of acetophenone)", "assay_type": "biochemical, Lactobacillus brevis", "protocol": "(§1) In this N-terminal sequence certain basicity-relevant amino acids were exchanged by established genetic engineering devices and the changes in the acceptance of NAD^+ were determined basically with two values, the KM value and the kcat value. The KM value (Michaelis-Menten-constant [Mol/L]) can be considered to be a measure for the affinity of the co-enzyme to the enzyme. Preferably, the KM value is as small as possible. The kcat value (Mol formed product/mol enzyme×sec) is a measure for the conversion, it should be as high as possible. A combined value, which takes both values into consideration is the quotient kcat/KM. This should be preferably≧20 for obtaining an enzyme suitable for preparative purposes.\n(§2) The successive changes of the mutated enzymes were proven by the determination of the kinetic parameters for the co-enzyme NAD^+, NAPD^+, NADH and NADPH by means of the corresponding kinetic parameters for the ketone substrate (acetophenone) or, respectively, by the oxidation reaction for the alcohol (phenylethanol). Furthermore, maintenance of the enantioselectivety was examined using the example of reduction of acetophenon. In addition, temperature-optima and stability, pH optima and stability and the iso-electric point were determined and compared with the corresponding data for the non-mutated wild-type enzyme."}, "[2]": {"assay": "Kinetic data for the reduced coenzyme NADH (reduction of acetophenone)", "assay_type": "biochemical, Lactobacillus brevis", "protocol": "as §1, §2"}, "[3]": {"assay": "Kinetic data for the oxidized coenzyme NAD+ (oxidation of phenylethanol)", "assay_type": "biochemical, Lactobacillus brevis", "details": "for Kcat value / Km: coenzyme NAD+", "protocol": "as §1, §2"}, "[4]": {"assay": "Batchwise reduction of acetophenone with coenzyme regeneration, enantioselectivity by gas chromatography", "assay_type": "biochemical, Lactobacillus brevis", "protocol": "In this case, 960 μl triethanolamine buffer, 50 mM, pH 7.0 with 11 mM acetophenon, 10 μl magnesium chloride (100 mM start solution); 25 μl NADP^+ (10 mM start solution), 9.4μl isopropanol, and 1 U alcohol dehydrogenase were used."}, "[5]": {"assay": "Temperature stability (residual activity after incubation at various temperatures)", "assay_type": "physicochemical, Lactobacillus brevis"}, "[6]": {"assay": "Kinetic data for the oxidized coenzyme NADP+ (oxidation of phenylethanol)", "assay_type": "biochemical, Lactobacillus brevis", "protocol": "as §1, §2"}, "[7]": {"assay": "Isoelectric point by isoelectric focussing", "assay_type": "physicochemical, Lactobacillus brevis", "details": "pH", "protocol": "The isoelectric point (IP) is determined by isoelectric focussing (IEF) to be at pH 4.28. This is noteworthy particularly in comparison with the mutant 2 (see example 4). With the mutant 2, the IP is determined at 4.65 despite the fact that, in each of the two mutants, the same type of aminoacid (lysine) was exchanged; in mutant 1, it was the lysine-45 (to isoleucine) and in mutant 2, it was the lysine-48 (to methionine)."}, "[8]": {"assay": "pH optimum of enzyme activity", "assay_type": "biochemical, Lactobacillus brevis", "details": "for activity at pH 8.0 compared with optimum: oxidative direction", "protocol": "For determining the optimal pH value, the following buffers were used: pH 4.5=Na-acetate; pH 5.0 and 5.5=Na-acetate; pH 6.0 and 6.5=Kpi or MES; pH 7.0 and 7.5=Kpi or TEA; pH 8.0 and 8.6=Tris; pH 9.0=Bicine. All buffers were used in a concentration of 100 mM. For the determination of the reductive reaction 10 mM acetophenon was added. The concentrations of NADP/NAD were each 2 mM. The concentration of NADH/NADPH was each 0.25 mM. For measurement, 970 μl of the respective buffer solution, which already included substrate at the desired concentration, was mixed with 20 μl of the start solution with the desired co-enzyme. The reaction was started with 10 μl enzyme. the dilution factor depended on the activity, it was chosen in the range of 1 to 3 U/ml."}, "[9]": {"assay": "pH stability (residual activity after incubation at various pH values)", "assay_type": "physicochemical, Lactobacillus brevis", "protocol": "The pH stability is expressed as residual activity after a 25 hour incubation period at various pH values, the same buffers were used as for the determination of the pH optima. 45 μl of the respective buffer were mixed with 5 μl of the enzyme solution and incubated at room temperature. Samples were taken after 30 min, 60 min., 6 hours and 25 hours."}, "[10]": {"assay": "Temperature optimum of enzyme activity", "assay_type": "biochemical, Lactobacillus brevis", "protocol": "The optimal temperature was determined for reductive reactions at pH 7.0 with the two coenzymes NADH and NADPH to be 55° C. in both cases. The temperature stability was determined as residual activity after 25 h incubation at various temperatures. At 37° C., still 95% reactivity was obtained; at 42° C. still 34%."}, "[11]": {"assay": "Standard enzyme test with crude extract (acetophenone reduction / phenyl ethanol oxidation)", "assay_type": "biochemical, Lactobacillus brevis", "protocol": "In the standard enzyme test for reduction of acetophenone, with NADPH 0.032 U/mg (0.318 U/ml, 9.75 mg protein/ml) and with NADH 0.47 U/mg (4.61 U/ml; 9.75 mg protein/ml) were measured. In the reverse reaction (alcohol-oxidation) with phenyl ethanol, with NAD^+ a specific activity of 1.1 U/mg (10.8 U/ml); 9.75 protein/ml) were measured."}, "[12]": {"details": "oxidation of phenyl ethanol with NAD+"}, "[13]": {"details": "reduction of acetophenone with NADH"}, "[14]": {"details": "reduction of acetophenone with NADPH"}},
  "note": "Several values for one entry are separate records, joined by “and”; a condition that tells them apart may be missing. Identical values can stand only once.",
  "data": [
    {"substance": "mutant 1/1: L. brevis ADH mutant with exchanges A9G, R38L, K45M (SEQ ID NO 17) (SNRLDGKVGIITGGTLGIGLAIATKFVEEGAKVMITGLHSDVGEMAAKSV; OTHER INFORMATION: mutant 1/1)", "values": [
      {"measurement": "Kcat value", "setting": "[1]", "result": 166.4, "unit": "s⁻¹"},
      {"measurement": "Km", "setting": "[1]", "result": 352, "unit": "µM"},
      {"measurement": "Kcat value", "setting": "[2]", "result": 10.3, "unit": "s⁻¹"},
      {"measurement": "Km", "setting": "[2]", "result": 188, "unit": "µM"},
      {"measurement": "Kcat value", "setting": "[3]", "result": 33.3, "unit": "s⁻¹"},
      {"measurement": "Km", "setting": "[3]", "result": "500 µM and 502 µM"},
      {"measurement": "selectivity (kcat/KM) for NAD+ in comparison with the value for NADP+", "setting": "[3]; kcat/KM NAD+ as percent of kcat/KM NADP+", "result": 100, "unit": "%"},
      {"measurement": "enantioselectivity: isomer of phenylethanol formed", "setting": "[4]", "result": "only the (R) isomere of phenyl ethanol"},
      {"measurement": "residual activity", "setting": "[5]; 25 h incubation at 25° C.", "result": 100, "unit": "%"},
      {"measurement": "residual activity", "setting": "[5]; 25 h incubation at 30° C.", "result": 59, "unit": "%"},
      {"measurement": "Kcat value", "setting": "[6]", "result": 33.3, "unit": "s⁻¹"},
      {"measurement": "Km", "setting": "[6]", "result": 502, "unit": "µM"},
      {"measurement": "isoelectric point", "setting": "[7]", "result": 4.85}
    ]},
    {"substance": "mutant 2/2: L. brevis ADH mutant with exchanges A9G, R38L, H39L, K48M (SEQ ID NO 19) (SNRLDGKVGIITGGTLGIGLAIATKFVEEGAKVMITGLLSDVGEKAAMSV; OTHER INFORMATION: mutant 2/2)", "values": [
      {"measurement": "activity at pH 8.0 compared with optimum", "setting": "[8]; NAD+", "result": 61, "unit": "%"},
      {"measurement": "activity at pH 8.0 compared with optimum", "setting": "[8]; NADP+", "result": 77, "unit": "%"},
      {"measurement": "activity at pH 7.0 compared with optimum", "setting": "[8]; reduction of acetophenone with NADH, pH 7.0", "result": 6, "unit": "%"},
      {"measurement": "Kcat value", "setting": "[1]", "result": 101.1, "unit": "s⁻¹"},
      {"measurement": "Km", "setting": "[1]", "result": 370, "unit": "µM"},
      {"measurement": "Kcat value", "setting": "[2]", "result": 33.6, "unit": "s⁻¹"},
      {"measurement": "Km", "setting": "[2]", "result": "~70 µM and 70 µM"},
      {"measurement": "Kcat value", "setting": "[3]", "result": 23.2, "unit": "s⁻¹"},
      {"measurement": "Km", "setting": "[3]", "result": "960 µM and 955 µM"},
      {"measurement": "residual activity", "setting": "[9]; 6 h storage at pH 7.0", "result": 100, "unit": "%"},
      {"measurement": "residual activity", "setting": "[9]; 6 h storage at pH 8.5", "result": 58, "unit": "%"},
      {"measurement": "enantioselectivity: isomer of phenylethanol formed", "setting": "[4]", "result": "the (R) isomere of phenylethanol only"},
      {"measurement": "activity at 60° C. relative to optimum", "setting": "[10]; NADH, 60° C.", "result": 70, "unit": "%"},
      {"measurement": "activity at 50° C. relative to optimum", "setting": "[10]; NADPH, measured at 50° C.", "result": 95, "unit": "%"},
      {"measurement": "residual activity", "setting": "[5]; storage 6 h at 30° C.", "result": 67, "unit": "%"},
      {"measurement": "residual activity", "setting": "[5]; storage 6 h at 37° C.", "result": 7, "unit": "%"},
      {"measurement": "Kcat value", "setting": "[6]", "result": 30.8, "unit": "s⁻¹"},
      {"measurement": "Km", "setting": "[6]", "result": 143, "unit": "µM"},
      {"measurement": "isoelectric point", "setting": "[7]", "result": "about 4.47"}
    ]},
    {"substance": "mutant 2/3: L. brevis ADH mutant with exchanges A9G, G37D, R38L, K48M (SEQ ID NO 20)", "values": [
      {"measurement": "activity", "setting": "[11]; [12]", "result": 10.8, "unit": "U/ml"},
      {"measurement": "specific activity", "setting": "[11]; [12]", "result": 1.1, "unit": "U/mg"},
      {"measurement": "activity", "setting": "[11]; oxidation of phenyl ethanol with NADP+", "result": "no activity"},
      {"measurement": "activity", "setting": "[11]; [13]", "result": 4.61, "unit": "U/ml"},
      {"measurement": "specific activity", "setting": "[11]; [13]", "result": 0.47, "unit": "U/mg"},
      {"measurement": "activity", "setting": "[11]; [14]", "result": 0.318, "unit": "U/ml"},
      {"measurement": "specific activity", "setting": "[11]; [14]", "result": 0.032, "unit": "U/mg"}
    ]}
  ]
}
